# Measured values as given in the supplement of paper PMC11316812.
# ± gives the standard deviation of the averaged measurements.
# Assays:
# [1] = tested on: MCF7; assay: percentage of EdU-negative (G0-arrested) nuclei per well, 72 h; higher = more G0 arrest; settings: reference: sequence is the full UniProt precursor, the tested protein was the secreted form or ectodomain
# [2] = tested on: hTERT-HMEC; assay: as above; settings: reference: sequence is the full UniProt precursor, the tested protein was the secreted form or ectodomain
# [3] = protein concentration 0.024875 µM
# [4] = protein concentration 0.24875 µM
# [5] = protein concentration 0.0128571 µM
# [6] = protein concentration 0.128571 µM
# [7] = protein concentration 0.0225 µM
# 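Further: secreted proteins added to cultured cells, EdU pulse at the end, nuclei found by Hoechst imaging, EdU status from nuclear versus surrounding ring intensity ratio, PBS as neutral control.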
sequence,measurement,setting,value
MCRIAGALRTLLPLLAALLQASVEASGEIALCKTGFPEDVYSAVLSKDVHEGQPLLNVKFSNCNGKRKVQYESSEPADFKVDEDGMVYAVRSFPLSSEHAKFLIYAQDKETQEKWQVAVKLSLKPTLTEESVKESAEVEEIVFPRQFSKHSGHLQRQKRDWVIPPINLPENSRGPFPQELVRIRSDRDKNLSLRYSVTGPGADQPPTGIFIINPISGQLSVTKPLDREQIARFHLRAHAVDINGNQVENPIDIVINVIDMNDNRPEFLHQVWNGTVPEGSKPGTYVMTVTAIDADDPNALNGMLRYRIVSQAPSTPSPNMFTINNETGDIITVAAGLDREKVQQYTLIIQATDMEGNPTYGLSNTATAVITVTDVNDNPPEFTAMTFYGEVPENRVDIIVANLTVTDKDQPHTPAWNAVYRISGGDPTGRFAIQTDPNSNDGLVTVVKPIDFETNRMFVLTVAAENQVPLAKGIQHPPQSTATVSVTVIDVNENPYFAPNPKIIRQEEGLHAGTMLTTFTAQDPDRYMQQNIRYTKLSDPANWLKIDPVNGQITTIAVLDRESPNVKNNIYNATFLASDNGIPPMSGTGTLQIYLLDINDNAPQVLPQEAETCETPDPNSINITALDYDIDPNAGPFAFDLPLSPVTIKRNWTITRLNGDFAQLNLKIKFLEAGIYEVPIIITDSGNPPKSNISILRVKVCQCDSNGDCTDVDRIVGAGLGTGAIIAILLCIIILLILVLMFVVWMKRRDKERQAKQLLIDPEDDVRDNILKYDEEGGGEEDQDYDLSQLQQPDTVEPDAIKPVGIRRMDERPIHAEPQYPVRSAAPHPGDIGDFINEGLKAADNDPTAPPYDSLLVFDYEGSGSTAGSLSSLNSSSSGGEQDYDYLNDWGPRFKKLADMYGGGDD,percentage of EdU-negative,[1]; [3],27 ± 2.4%
same,percentage of EdU-negative,[1]; [4],28 ± 1.6%
same,percentage of EdU-negative,[2]; [3],4.75 ± 0.064%
same,percentage of EdU-negative,[2]; [4],9.56 ± 1.9%
MLQGTCSVLLLWGILGAIQAQQQEVISPDTTERNNNCPEKTDCPIHVYFVLDTSESVTMQSPTDILLFHMKQFVPQFISQLQNEFYLDQVALSWRYGGLHFSDQVEVFSPPGSDRASFIKNLQGISSFRRGTFTDCALANMTEQIRQDRSKGTVHFAVVITDGHVTGSPCGGIKLQAERAREEGIRLFAVAPNQNLKEQGLRDIASTPHELYRNDYATMLPDSTEIDQDTINRIIKVMKHEAYGECYKVSCLEIPGPSGPKGYRGQKGAKGNMGEPGEPGQKGRQGDPGIEGPIGFPGPKGVPGFKGEKGEFGADGRKGAPGLAGKNGTDGQKGKLGRIGPPGCKGDPGNRGPDGYPGEAGSPGERGDQGGKGDPGRPGRRGPPGEIGAKGSKGYQGNSGAPGSPGVKGAKGGPGPRGPKGEPGRRGDPGTKGSPGSDGPKGEKGDPGPEGPRGLAGEVGNKGAKGDRGLPGPRGPQGALGEPGKQGSRGDPGDAGPRGDSGQPGPKGDPGRPGFSYPGPRGAPGEKGEPGPRGPEGGRGDFGLKGEPGRKGEKGEPADPGPPGEPGPRGPRGVPGPEGEPGPPGDPGLTECDVMTYVRETCGCCDCEKRCGALDVVFVIDSSESIGYTNFTLEKNFVINVVNRLGAIAKDPKSETGTRVGVVQYSHEGTFEAIQLDDERIDSLSSFKEAVKNLEWIAGGTWTPSALKFAYDRLIKESRRQKTRVFAVVITDGRHDPRDDDLNLRALCDRDVTVTAIGIGDMFHEKHESENLYSIACDKPQQVRNMTLFSDLVAEKFIDDMEDVLCPDPQIVCPDLPCQTELSVAQCTQRPVDIVFLLDGSERLGEQNFHKARRFVEQVARRLTLARRDDDPLNARVALLQFGGPGEQQVAFPLSHNLTAIHEALETTQYLNSFSHVGAGVVHAINAIVRSPRGGARRHAELSFVFLTDGVTGNDSLHESAHSMRKQNVVPTVLALGSDVDMDVLTTLSLGDRAAVFHEKDYDSLAQPGFFDRFIRWIC,percentage of EdU-negative,[1]; protein concentration 0.013 µM,27.1 ± 0.99%
same,percentage of EdU-negative,[1]; protein concentration 0.13 µM,27.7 ± 1.8%
same,percentage of EdU-negative,[2]; protein concentration 0.013 µM,6.76 ± 1.4%
same,percentage of EdU-negative,[2]; protein concentration 0.13 µM,50.9 ± 9.9%
MAEAKTHWLGAALSLIPLIFLISGAEAASFQRNQLLQKEPDLRLENVQKFPSPEMIRALEYIENLRQQAHKEESSPDYNPYQGVSVPLQQKENGDESHLPERDSLSEEDWMRIILEALRQAENEPQSAPKENKPYALNSEKNFPMDMSDDYETQQWPERKLKHMQFPPMYEENSRDNPFKRTNEIVEEQYTPQSLATLESVFQELGKLTGPNNQKRERMDEEQKLYTDDEDDIYKANNIAYEDVVGGEDWNPVEEKIESQTQEEVRDSKENIEKNEQINDEMKRSGQLGIQEEDLRKESKDQLSDDVSKVIAYLKRLVNAAGSGRLQNGQNGERATRLFEKPLDSQSIYQLIEISRNLQIPPEDLIEMLKTGEKPNGSVEPERELDLPVDLDDISEADLDHPDLFQNRMLSKSGYPKTPGRAGTEALPDGLSVEDILNLLGMESAANQKTSYFPNPYNQEKVLPRLPYGAGRSRSNQLPKAAWIPHVENRQMAYENLNDKDQELGEYLARMLVKYPEIINSNQVKRVPGQGSSEDDLQEEEQIEQAIKEHLNQGSSQETDKLAPVSKRFPVGPPKNDDTPNRQYWDEDLLMKVLEYLNQEKAEKGREHIAKRAMENM,percentage of EdU-negative,[1]; protein concentration 0.006 µM,26.9 ± 0.33%
same,percentage of EdU-negative,[1]; protein concentration 0.06 µM,27.1 ± 1.7%
same,percentage of EdU-negative,[2]; protein concentration 0.006 µM,5.24 ± 0.54%
same,percentage of EdU-negative,[2]; protein concentration 0.06 µM,5.44 ± 0.097%
MGPRARPALLLLMLLQTAVLQGRLLRSHSLHYLFMGASEQDLGLSLFEALGYVDDQLFVFYDHESRRVEPRTPWVSSRISSQMWLQLSQSLKGWDHMFTVDFWTIMENHNHSKESHTLQVILGCEMQEDNSTEGYWKYGYDGQDHLEFCPDTLDWRAAEPRAWPTKLEWERHKIRARQNRAYLERDCPAQLQQLLELGRGVLDQQVPPLVKVTHHVTSSVTTLRCRALNYYPQNITMKWLKDKQPMDAKEFEPKDVLPNGDGTYQGWITLAVPPGEEQRYTCQVEHPGLDQPLIVIWEPSPSGTLVIGVISGIAVFVVILFIGILFIILRKRQGSRGAMGHYVLAERE,percentage of EdU-negative,[1]; [5],25.8 ± 0.42%
same,percentage of EdU-negative,[1]; [6],29 ± 1.8%
same,percentage of EdU-negative,[2]; [5],5.75 ± 0.3%
same,percentage of EdU-negative,[2]; [6],7.25 ± 1.1%
MPGRSCVALVLLAAAVSCAVAQHAPPWTEDCRKSTYPPSGPTYRGAVPWYTINLDLPPYKRWHELMLDKAPVLKVIVNSLKNMINTFVPSGKIMQVVDEKLPGLLGNFPGPFEEEMKGIAAVTDIPLGEIISFNIFYELFTICTSIVAEDKKGHLIHGRNMDFGVFLGWNINNDTWVITEQLKPLTVNLDFQRNNKTVFKASSFAGYVGMLTGFKPGLFSLTLNERFSINGGYLGILEWILGKKDVMWIGFLTRTVLENSTSYEEAKNLLTKTKILAPAYFILGGNQSGEGCVITRDRKESLDVYELDAKQGRWYVVQTNYDRWKHPFFLDDRRTPAKMCLNRTSQENISFETMYDVLSTKPVLNKLTVYTTLIDVTKGQFETYLRDCPDPCIGW,percentage of EdU-negative,[1]; [7],26.7 ± 2.9%
same,percentage of EdU-negative,[1]; protein concentration 0.225 µM,26.1 ± 0.96%
same,percentage of EdU-negative,[2]; [7],4.75 ± 0.61%
same,percentage of EdU-negative,[2]; protein concentration 0.225 µM,12.9 ± 1.1%
MARPLCTLLLLMATLAGALASSSKEENRIIPGGIYDADLNDEWVQRALHFAISEYNKATEDEYYRRPLQVLRAREQTFGGVNYFFDVEVGRTICTKSQPNLDTCAFHEQPELQKKQLCSFEIYEVPWEDRMSLVNSRCQEA,percentage of EdU-negative,[1]; [7],25.1 ± 1.4%
same,percentage of EdU-negative,[1]; protein concentration 0.225 µM,24.36 ± 0.2%
same,percentage of EdU-negative,[2]; [7],5.17 ± 0.14%
same,percentage of EdU-negative,[2]; protein concentration 0.225 µM,6.38 ± 0.58%
